Measured values taken from PMC13022406, “Amino acid and viral binding by the high-affinity Cationic Amino acid Transporter 1 (CAT1) from Mus musculus” (Nature Communications, 2026).

B1: Cationic Amino acid Transporter 1 (CAT1) from Mus musculus, purified (receptor)
chain: not shown
modifications: N-linked glycans at Asn223 and Asn229
B2: Friend Murine Leukemia Virus receptor binding domain (domain or fragment, UniProt P03390 35-270, looked up)
chain: AAPGSSPHQVYNITWEVTNGDRETVWAISGNHPLWTWWPVLTPDLCMLALSGPPHWGLEYQAPYSSPPGPPCCSGSSGSSAGCSRDCDEPLTSLTPRCNTAWNRLKLDQVTHKSSEGFYVCPGSHRPREAKSCGGPDSFYCASWGCETTGRVYWKPSSSWDYITVDNNLTTSQAVQVCKDNKWCNPLAIQFTNAGKQVTSWTTGHYWGLRLYVSGRDPGLTFGIRLRYQNLGPRVP
modifications: N-linked glycans at Asn46 and Asn202
notes: the previously crystallized construct (PDB 1AOL); Residues 43-265 were built in the cryo-EM model; also called FrMLV-RBD; source: adherent HEK293T cells (lentiviral expression), secreted, purified (Ni-NTA, SEC)

Assays:
[1] = target: B2; assay: BLI; MmCAT1 (100 nM, twin-strep and GFP tag) loaded on Strep-Tactin XT probes (Gator Pivot); FrMLV-RBD at 2.7 uM, 900, 300, 100 and 33.3 nM; 25 mM HEPES pH 7.5, 125 mM NaCl, 0.003% LMNG, 0.0006% CHS; room temperature; 5 min association, 5 min dissociation; conditions: both partners purified
[2] = target: B1; assay: cryo-EM structure; MmCAT1:FrMLV-RBD complex purified by SEC in LMNG/CHS; apo and with 34 mM arginine, 20 mM lysine or 20 mM ornithine; conditions: both partners purified

Binder	Kd [1] [nM]	stoichiometry N [2]
B1	9.7	
B2		1
